Laboratory results from patent US20240352128A1 (NANJING GENSCRIPT BIOTECH, published 2024).
Where a chain is given by its changes, count along the chain named.

B1: pTT5-AR8820-1.1mIgG1Fc (Fc fusion)
heavy: QVQLVESGGGVVQPGGSLRLSCAASGSSISRYAMAWYRQAPGKGRELVAVVRITGSPIYADFVGGRFTISRDNSKNTLYLQMNSLRAEDTAVYYCATGNFNTYTRRYSPSETWGKGTTVTVSSVPRDCGCKPCICTVPEVSSVFIFPPKPKDVLTITLTPKVTCVVVDISKDDPEVQFSWFVDDVEVHTAQTQPREEQFNSTFRSVSELPIMHQDWLNGKEFKCRVNSAAFPAPIEKTISKTKGRPKAPQVYTIPPPKEQMAKDKVSLTCMITDFFPEDITVEWQWNGQPAENYKNTQPIMDTDGSYFVYSKLNVQKSNWEAGNTFTCSVLHEGLHNHHTEKSLSHSPGK
notes: As m24
B2: pTT5-AR8804-3.2 mIgG1Fc (Fc fusion)
heavy: B1 heavy with I29V, L47W, S56I, G64K
notes: As m24
B3: pTT5-AR8820-1.2mIgG1Fc (Fc fusion)
heavy: B1 heavy with L47W
notes: As m24
B4: pTT5-AR8820-2.1mIgG1Fc (Fc fusion)
VHH-Fc: B1 heavy with Q1E, V11L, V12I, A49S, K115Q
notes: As m24
B5: pTT5-AR8820-2.3mIgG1Fc (Fc fusion)
VHH-Fc: B1 heavy with Q1E, V11L, V12I, A49S, A96N, T97R, K115Q
notes: As m24
B6: pTT5-AR8820-1.3mIgG1Fc (Fc fusion)
heavy: B1 heavy with A96N
notes: As m24
B7: pTT5-AR8820-3.1 mIgG1Fc (Fc fusion)
heavy: B1 heavy with Q1E, V11L, S74A, T77S, K115Q, T118L
notes: As m24
B8: pTT5-AR8820-3.3 mIgG1Fc (Fc fusion)
VHH-Fc: B1 heavy with Q1E, V11L, S74A, T77S, A96N, K115Q, T118L
notes: As m24
B9: pTT5-AR8804-3.3mIgG1Fc (Fc fusion)
heavy: B1 heavy with I29V, S56I, G64K, A96N
notes: As m24

molecular target: T1, cynomolgus monkey CD16a on HEK293 cells expressing cyno monkey CD16a (constructed by Genscript) (cynomolgus monkey, UniProt Q8SPW2 17-254); experiment: flow cytometry on HEK293 cells expressing cyno monkey CD16a
T1 construct: whole, on cells; also called cynomolgus monkey CD16a protein
T1 sequence (Q8SPW2 17-254): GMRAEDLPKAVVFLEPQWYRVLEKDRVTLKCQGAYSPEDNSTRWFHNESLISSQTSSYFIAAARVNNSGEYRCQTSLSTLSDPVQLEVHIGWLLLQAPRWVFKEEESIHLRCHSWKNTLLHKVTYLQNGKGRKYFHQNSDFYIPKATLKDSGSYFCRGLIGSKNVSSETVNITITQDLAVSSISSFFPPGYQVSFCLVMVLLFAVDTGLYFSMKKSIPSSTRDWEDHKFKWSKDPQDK
Procedure: To determine the cross-reactions of antibody products, HEK293 cells expressing cyno monkey CD16a (constructed by Genscript) were harvested and incubated respectively with serially diluted anti-CD16a humanized sdAb-mIgG1Fcs (max. concentration: 100 nM, 3-fold dilution), followed by fluorophore (iFluor 647)-labeled goat anti mouse IgG (H+L) secondary antibodies (Jackson immuno research; catalog #: 115-605-062). The samples were then analyzed with flow cytometry. Raw data was plotted with GraphPad Prism v6.02 software with four parameters, best-fit values program to analyze the EC₅₀. The molecules of pTT5-AR8804-3.2 mIgG1Fc, pTT5-AR8804-3.3mIgG1Fc, pTT5-AR8820-1.1mIgG1Fc, pTT5-AR8820-1.2mIgG1Fc, pTT5-AR8820-1.3mIgG1Fc, pTT5-AR8820-2.1mIgG1Fc, pTT5-AR8820-2.3mIgG1Fc, pTT5-AR8820-3.1mIgG1Fc and pTT5-AR8820-3.3 mIgG1Fc manifested good cross-reaction with cynomolgus monkey CD16a protein (FIG. 13).

Row | binding result | Binder
1 | binds | B1
2 | binds | B2
3 | binds | B3
4 | binds | B4
5 | binds | B5
6 | binds | B6
7 | binds | B7
8 | binds | B8
9 | binds | B9
